Data from publication PMC5482063.

Assays:
[1] = molecular target: farnesylated Cryptochrome interacting basic helix-loop-helix 1 (CIB1-CAAX) (UniProt Q8GY61); assay: light-induced membrane recruitment assay (TIRF microscopy); living COS-7 cells co-expressing the Cry2 construct and CIB1-CAAX at the plasma membrane; whole-cell blue light (440 nm, 50 ms pulses at 10 s intervals); fluorescence after ten pulses normalised to that before illumination; 37 °C
[2] = molecular target: farnesylated Cryptochrome interacting basic helix-loop-helix 1 (CIB1-CAAX) (UniProt Q8GY61); assay: light-induced membrane recruitment assay (TIRF microscopy); living COS-7 or MC3T3-E1 cells co-expressing the Cry2 construct and CIB-CAAX; illumination limited to a 5 μm-diameter circle (440 nm); 37 °C
[3] = molecular target: mCherry-optoPlexin (chimera of Cry2 at the amino terminus, mCherry, and the intracellular domain of Plexin-B1 at the C terminus) (not stated | mouse) (UniProt Q96524); assay: membrane co-recruitment assay (TIRF microscopy); living COS-7 cells co-expressing mVenus-RhoGEF, the mCherry-tagged Cry2 construct and CIB-CAAX; whole-cell blue light; increase of the RhoGEF's fluorescence relative to that of optoPlexin (relative co-recruitment); only cells with at least 30% increase in optoPlexin signal; also with Erlotinib

Chain of UniProt Q8GY61 (Q8GY61 whole entry, the tested form may be a part): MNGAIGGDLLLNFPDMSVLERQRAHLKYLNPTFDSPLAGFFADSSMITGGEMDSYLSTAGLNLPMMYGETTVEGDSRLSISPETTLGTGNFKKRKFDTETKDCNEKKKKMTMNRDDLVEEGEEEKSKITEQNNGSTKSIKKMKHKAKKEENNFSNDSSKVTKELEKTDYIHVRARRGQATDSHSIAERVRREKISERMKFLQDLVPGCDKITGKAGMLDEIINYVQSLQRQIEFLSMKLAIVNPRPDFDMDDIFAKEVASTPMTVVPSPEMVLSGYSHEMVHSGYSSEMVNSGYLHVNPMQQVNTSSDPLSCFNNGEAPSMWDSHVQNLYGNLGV

| Substance | fold increase of TIRF fluorescence intensity (membrane recruitment) [1] [fold] | fold increase of TIRF fluorescence intensity (membrane recruitment) [2] [fold] | relative co-recruitment (increase in fluorescence relative to that of optoPlexin) [3] [%] |
| --- | --- | --- | --- |
| mCherry-optoPlexin (chimera of Cry2 at the amino terminus, mCherry, and the intracellular domain of Plexin-B1 at the C terminus) (from UniProt Q96524 1-612) | 2 | 4 |  |
| mVenus-Leukemia-associated RhoGEF (mVenus-LARG) (from UniProt Q9NZN5 1-1544) (natural protein) |  |  | 60 |
| mVenus-PDZ-RhoGEF (mVenus-PRG) (from UniProt O15085 1-1522) (natural protein) |  |  | 26 |
